B1: PLEKHM1‐LIR peptide (GAMG‐P^629QQEDEWVNVQYPD^642) (peptide)
peptide: GAMGPQQEDEWVNVQYPD
notes: cloning artefact left after TEV cleavage; PLEKHM1 LIR, residues 629-642; 13C,15N- or 15N-labelled for some NMR experiments; also called PLEKHM1‐LIR WT; source: E. coli NEB T7, as Ub63 fusion, TEV-cleaved, purified (Ni-NTA, reverse Ni-NTA, gel filtration)
B2: PLEKHM1‐LIR V636G peptide (ITC) (peptide)
chain: PQQEDEWGNVQYPD
modifications: limits taken from the WT ITC peptide (P629-D642); N-terminal GAMG cloning remnant, printed only for WT, left out
B3: PLEKHM1‐LIR W635A peptide (ITC) (peptide)
chain: PQQEDEAVNVQYPD
modifications: limits taken from the WT ITC peptide (P629-D642); N-terminal GAMG cloning remnant, printed only for WT, left out
B4: PLEKHM1‐LIR N637C peptide (biotinylated 9-mer) (peptide, UniProt Q9Y4G2 632-640, looked up)
peptide: EDEWVCVQY
modifications: also: biotinylated
notes: PLEKHM1 LIR; source: bought: JPT (biotinylated peptide)
B5: PLEKHM1‐LIR N637F peptide (biotinylated 9-mer) (peptide, UniProt Q9Y4G2 632-640, looked up)
peptide: EDEWVFVQY
modifications: also: biotinylated
notes: as for B4
B6: PLEKHM1‐LIR N637L peptide (biotinylated 9-mer) (peptide, UniProt Q9Y4G2 632-640, looked up)
peptide: EDEWVLVQY
modifications: also: biotinylated
notes: as for B4
B7: PLEKHM1‐LIR N637W peptide (biotinylated 9-mer) (peptide, UniProt Q9Y4G2 632-640, looked up)
peptide: EDEWVWVQY
modifications: also: biotinylated
notes: as for B4
B8: PLEKHM1‐LIR V638L peptide (biotinylated 9-mer) (peptide, UniProt Q9Y4G2 632-640, looked up)
peptide: EDEWVNLQY
modifications: also: biotinylated
notes: as for B4
B9: PLEKHM1‐LIR W635Y peptide (biotinylated 9-mer) (peptide, UniProt Q9Y4G2 632-640, looked up)
peptide: EDEYVNVQY
modifications: also: biotinylated
notes: as for B4
B10: PLEKHM1‐LIR N637I peptide (biotinylated 9-mer) (peptide, UniProt Q9Y4G2 632-640, looked up)
peptide: EDEWVIVQY
modifications: also: biotinylated
notes: as for B4
B11: PLEKHM1‐LIR N637Y peptide (biotinylated 9-mer) (peptide, UniProt Q9Y4G2 632-640, looked up)
peptide: EDEWVYVQY
modifications: also: biotinylated
notes: as for B4
B12: PLEKHM1‐LIR W635F peptide (biotinylated 9-mer) (peptide, UniProt Q9Y4G2 632-640, looked up)
peptide: EDEFVNVQY
modifications: also: biotinylated
notes: as for B4
B13: PLEKHM1‐LIR V638I peptide (biotinylated 9-mer) (peptide, UniProt Q9Y4G2 632-640, looked up)
peptide: EDEWVNIQY
modifications: also: biotinylated
notes: as for B4
B14: PLEKHM1‐LIR N637V peptide (biotinylated 9-mer) (peptide, UniProt Q9Y4G2 632-640, looked up)
peptide: EDEWVVVQY
modifications: also: biotinylated
notes: as for B4

Ends that are not written are not given here. Some results are limits rather than exact numbers.

T8 sequence (Q9BXW4 1-126): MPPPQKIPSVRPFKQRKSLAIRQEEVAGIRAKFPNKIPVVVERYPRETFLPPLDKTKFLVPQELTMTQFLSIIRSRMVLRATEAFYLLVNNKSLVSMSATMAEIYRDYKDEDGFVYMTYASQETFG
T4 sequence (Q9BXW4 1-126): as above
T6 sequence (Q9H0R8 whole entry, looked up): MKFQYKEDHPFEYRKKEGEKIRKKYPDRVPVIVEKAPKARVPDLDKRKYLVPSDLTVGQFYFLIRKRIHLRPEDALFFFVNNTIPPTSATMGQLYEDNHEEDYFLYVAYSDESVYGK

For the first assay, the target named is T1, LC3A (for ITC and NMR) (human, UniProt Q9H492 1-121).
T1 construct: LC3A, human; 15N-labelled for NMR; also called MAP1LC3A; source: E. coli NEB T7 Express, purified
Put plainly: ITC; peptide 0.4 mM titrated into 0.020 mM LC3/GABARAP protein in 26 steps, 25°C; 50 mM Na2HPO4, 100 mM NaCl, pH 7.0; one-site model. The note with it: both partners purified. (In general: In ITC the heat of successive injections is recorded.)
The term Kd denotes the concentration at which binding is half-saturated. High values mean a looser complex, low ones a tighter complex. As usually defined, the stoichiometry N is the number of molecules, sites or subunits per partner or assembly. As to B1, the Ka was determined as 240000 M⁻¹, binding was put at a Kd of 4.22 µM, the dH is -7 ± 0.2 kcal/mol and the “stoichiometry N” value is 0.98 ± 0.02.

The next assay deals with T2, GABARAP‐L1 (for ITC and NMR) (human, UniProt Q9H0R8 1-117).
T2 construct: GABARAP-L1, human; 15N-labelled for NMR; source: E. coli NEB T7 Express, purified
T2 sequence (Q9H0R8 whole entry): as the sequence (Q9H0R8 whole entry, looked up) above
The assay is described as above. The note with it: both partners purified.
With B1, the Ka came out at 1.3e+06 M⁻¹, the dissociation constant (Kd) is 0.77 µM, the dH was -7.8 ± 0.1 kcal/mol and the “stoichiometry N” value is 1 ± 0.01.

The target in the next assay is T3, GABARAP (for ITC and NMR) (human, UniProt O95166 1-117).
T3 construct: GABARAP, human; source: E. coli NEB T7 Express, purified
T3 sequence (O95166 whole entry): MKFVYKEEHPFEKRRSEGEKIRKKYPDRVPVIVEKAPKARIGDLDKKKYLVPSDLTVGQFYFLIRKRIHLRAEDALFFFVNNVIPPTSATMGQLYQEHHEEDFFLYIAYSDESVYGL
The assay is described as above. Particulars: both partners purified.
As to B2, the Ka is 20000 M⁻¹; the affinity, expressed as Kd, was 52 µM; the dH is -7.5 ± 0.1 kcal/mol.
Turning to B1, the Ka is 1.8e+06 M⁻¹, the dissociation constant Kd stood at 0.55 µM, the dH is -10.6 ± 0.1 kcal/mol and the “stoichiometry N” value turned out to be 1 ± 0.01.
For B3, the Ka is 10000 M⁻¹, the Kd is above 100 µM and the dH was -1.1 ± 0.1 kcal/mol.

The next assay addresses LC3B (for ITC and NMR) (human, UniProt Q9GZQ8 1-120). Described as above. The note with it: both partners purified.
For the molecule B1, the Ka is 160000 M⁻¹, the Kd amounted to 6.33 µM, the dH is -5.8 ± 0.2 kcal/mol and the “stoichiometry N” value came to 1.06 ± 0.01.

Another assay addresses T4, LC3C (for ITC) (human, UniProt Q9BXW4 1-126).
T4 construct: LC3C, human; source: E. coli NEB T7 Express, purified
Described as above. The note with it: both partners purified.
In the case of B1, the Ka came to 290000 M⁻¹, the Kd was determined as 3.45 µM, the dH is -8.3 ± 0.2 kcal/mol and the “stoichiometry N” value came to 0.99 ± 0.02.

For another assay, the target named is T5, GABARAP‐L2 (for ITC and NMR) (human, UniProt P60520 1-117).
T5 construct: GABARAP-L2/GATE-16, human; 15N-labelled for NMR; also called GATE‐16; source: E. coli NEB T7 Express, purified
T5 sequence (P60520 whole entry): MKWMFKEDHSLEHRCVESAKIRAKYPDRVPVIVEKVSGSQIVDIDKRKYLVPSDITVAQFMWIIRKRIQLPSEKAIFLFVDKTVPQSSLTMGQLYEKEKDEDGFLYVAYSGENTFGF
The assay is described as above. The note with it: both partners purified.
As for B1, the Ka was determined as 1.07e+06 M⁻¹, the equilibrium dissociation constant (Kd) was found to be 0.93 µM, the dH was -6.1 ± 0.1 kcal/mol and the “stoichiometry N” value stood at 1.05 ± 0.01.

A further assay has as its target T6, 6xHis‐tagged GABARAP‐L1 (human, UniProt Q9H0R8 1-117).
T6 construct: GABARAP-L1, human; also called His6‐GABARAP‐L1; source: E. coli, isolated
Nature of the assay: ELISA; called peptide array: biotinylated peptides immobilised on streptavidin-coated 96-well plates; 1 μM His6-mATG8 in PBS, 0.1% Tween-20, 1% BSA, 1 h, 8°C; anti-His-HRP, TMB, absorbance at 450 nm. The note with it: both partners purified.
For B4, the binding result was “binds”.
On to B5, for which the binding result is reported as “binds”.
Regarding B6, the binding result was “binds”.
As for B7, the binding result is “binds”.
Same read-out and setting: the entry for B8 is “binds”; for B9 it is “binds”.
In the case of B10, the binding result is reported as “binds”.
Still for that read-out and setting: the entry for B11 is “binds”.
Still for that read-out and setting: with B12 the entry was “binds”; with B13, “binds”.
The same measure, in the same setting: with B14 the entry was “binds”.

In another assay the target is T7, 6xHis‐tagged GABARAP‐L2 (human, UniProt P60520 1-117).
T7 construct: GABARAP-L2/GATE-16, human; also called His6‐GABARAP‐L2; GATE‐16; source: E. coli, isolated
T7 sequence (P60520 whole entry): as above
The description is as above. Particulars: both partners purified.
On to B4, for which the binding result is “binds”.
Take B5: the binding result is “binds”.
Take B6: the binding result was “binds”.
On to B7, for which the binding result is reported as “binds”.
On to B8, for which the binding result is recorded as “binds”.
The same measure, in the same setting: with B9 the entry was “binds”.
For B10, the binding result is on record as “binds”.
On the same count and under the same terms, with B11 the entry was “binds”; with B12, “binds”; with B13, “binds”.
For B14, the binding result is on record as “binds”.

Another assay addresses T8, 6xHis‐tagged LC3C (human, UniProt Q9BXW4 1-126).
T8 construct: LC3C, human; also called His6‐LC3C; source: E. coli, isolated
Described as above. The note with it: both partners purified.
On to B4, for which the binding result is “binds”.
On the same count and under the same terms, the entry for B5 is “binds”.
Take B6: the binding result was “binds”.
B7: the binding result was “binds”.
Consider B8, for which the binding result is recorded as “binds”.
Still for that read-out and setting: the entry for B9 is “binds”; for B10 it is “binds”; for B11 it is “binds”.
The same measure, in the same setting: the entry for B12 is “binds”; for B13 it is “binds”; for B14 it is “binds”.

In another assay the target is T9, 6xHis‐tagged LC3A (human, UniProt Q9H492 1-121).
T9 construct: LC3A (MAP1LC3A), human; also called His6‐LC3A; MAP1LC3A; source: E. coli, isolated
The assay is described as above. The note with it: both partners purified.
On to B4, for which the binding result is listed as “binds”.
For B5, the binding result was “binds”.
In the case of B6, the binding result was “binds”.
B7: the binding result is listed as “binds”.
On the same count and under the same terms, with B8 the entry was “binds”.
The same measure, in the same setting: the entry for B9 is “binds”.
The same measure, in the same setting: the entry for B10 is “binds”.
With B11, the binding result was “binds”.
Still for that read-out and setting: the entry for B12 is “binds”; for B13 it is “binds”.
For B14, the binding result is listed as “binds”.

The target of another assay is 6xHis‐tagged LC3B (human, UniProt Q9GZQ8 1-120). The assay is described as above. Particulars: both partners purified.
For the molecule B4, the binding result is given as “binds”.
B5: the binding result is reported as “binds”.
As for B6, the binding result is listed as “binds”.
On the same count and under the same terms, with B7 the entry was “binds”.
Still for that read-out and setting: the entry for B8 is “binds”.
Same read-out and setting: with B9 the entry was “binds”; with B10, “binds”; with B11, “binds”.
For the molecule B12, the binding result was “binds”.
As to B13, the binding result is “binds”.
For B14, the binding result is on record as “binds”.

Another assay deals with T10, 6xHis‐tagged GABARAP (human, UniProt O95166 1-117).
T10 construct: GABARAP, human; also called His6‐GABARAP; source: E. coli, isolated
T10 sequence (O95166 whole entry): as the sequence (O95166 whole entry) above
The description is as above. Particulars: both partners purified.
As for B4, the binding result is recorded as “binds”.
Still for that read-out and setting: the entry for B5 is “binds”; for B6 it is “binds”; for B7 it is “binds”.
For the molecule B8, the binding result is “binds”.
As for B9, the binding result is given as “binds”.
The same measure, in the same setting: with B10 the entry was “binds”; with B11, “binds”; with B12, “binds”.
B13: the binding result is recorded as “binds”.
Same read-out and setting: with B14 the entry was “binds”.

The record behind these values is PMC5538626 (EMBO Reports, 2017).
